From patent US20210388087A1 (Chugai, published 2021)

Target: T1, CD3 epsilon homodimer protein (UniProt P07766 23-126)
T1 construct: also called CD3 (CD3 epsilon)
Test: SPR, antibody over immobilised CD3e homodimer;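 note: SPR at 25 °C with CD3 epsilon homodimer amine-coupled to a CM4 sensor chip and antibody flowed over as analyte in HBS-EP+ running buffer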

T1 sequence (P07766 23-126): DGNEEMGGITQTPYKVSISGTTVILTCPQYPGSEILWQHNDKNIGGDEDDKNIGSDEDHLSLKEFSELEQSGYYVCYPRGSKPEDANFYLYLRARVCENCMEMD

| KD ratio to GLS3000 | Binder |
| --- | --- |
| 2.59 | CE115HA000/GLS3000 N28F (antibody, IgG1, name in Kabat numbering, V domains shown, one-arm IgG1) VH: QVQLVESGGGVVQPGRSLRLSCAASGFTFSNAWMHWVRQAPGKGLEWVAQIKAKSNNYATYYAESVKGRFTISRDDSKNSLYLQMNSLKTEDTAVYYCRYVHYGAYYGVDAWGQGTTVTVSS VL: DIVMTQSPLSLPVTPGEPASISCRSSQSLVHSFRNTYLHWYQQKPGQAPRLLIYKVSNRFSGVPDRFSGSGSGTDFTLKISRVEAEDVGVYYCGQGTQVPYTFGQGTKLEIK |
| 2.41 | CE115HA000/GLS3000 N28G (antibody, IgG1, name in Kabat numbering, V domains shown, one-arm IgG1) VH: QVQLVESGGGVVQPGRSLRLSCAASGFTFSNAWMHWVRQAPGKGLEWVAQIKAKSNNYATYYAESVKGRFTISRDDSKNSLYLQMNSLKTEDTAVYYCRYVHYGAYYGVDAWGQGTTVTVSS VL: DIVMTQSPLSLPVTPGEPASISCRSSQSLVHSGRNTYLHWYQQKPGQAPRLLIYKVSNRFSGVPDRFSGSGSGTDFTLKISRVEAEDVGVYYCGQGTQVPYTFGQGTKLEIK |
| 3 | CE115HA000/GLS3000 N28H (antibody, IgG1, name in Kabat numbering, V domains shown, one-arm IgG1) VH: QVQLVESGGGVVQPGRSLRLSCAASGFTFSNAWMHWVRQAPGKGLEWVAQIKAKSNNYATYYAESVKGRFTISRDDSKNSLYLQMNSLKTEDTAVYYCRYVHYGAYYGVDAWGQGTTVTVSS VL: DIVMTQSPLSLPVTPGEPASISCRSSQSLVHSHRNTYLHWYQQKPGQAPRLLIYKVSNRFSGVPDRFSGSGSGTDFTLKISRVEAEDVGVYYCGQGTQVPYTFGQGTKLEIK |
| 2.81 | CE115HA000/GLS3000 N28I (antibody, IgG1, name in Kabat numbering, V domains shown, one-arm IgG1) VH: QVQLVESGGGVVQPGRSLRLSCAASGFTFSNAWMHWVRQAPGKGLEWVAQIKAKSNNYATYYAESVKGRFTISRDDSKNSLYLQMNSLKTEDTAVYYCRYVHYGAYYGVDAWGQGTTVTVSS VL: DIVMTQSPLSLPVTPGEPASISCRSSQSLVHSIRNTYLHWYQQKPGQAPRLLIYKVSNRFSGVPDRFSGSGSGTDFTLKISRVEAEDVGVYYCGQGTQVPYTFGQGTKLEIK |
| 2.34 | CE115HA000/GLS3000 N28K (antibody, IgG1, name in Kabat numbering, V domains shown, one-arm IgG1) VH: QVQLVESGGGVVQPGRSLRLSCAASGFTFSNAWMHWVRQAPGKGLEWVAQIKAKSNNYATYYAESVKGRFTISRDDSKNSLYLQMNSLKTEDTAVYYCRYVHYGAYYGVDAWGQGTTVTVSS VL: DIVMTQSPLSLPVTPGEPASISCRSSQSLVHSKRNTYLHWYQQKPGQAPRLLIYKVSNRFSGVPDRFSGSGSGTDFTLKISRVEAEDVGVYYCGQGTQVPYTFGQGTKLEIK |
| 3.34 | CE115HA000/GLS3000 N28L (antibody, IgG1, name in Kabat numbering, V domains shown, one-arm IgG1) VH: QVQLVESGGGVVQPGRSLRLSCAASGFTFSNAWMHWVRQAPGKGLEWVAQIKAKSNNYATYYAESVKGRFTISRDDSKNSLYLQMNSLKTEDTAVYYCRYVHYGAYYGVDAWGQGTTVTVSS VL: DIVMTQSPLSLPVTPGEPASISCRSSQSLVHSLRNTYLHWYQQKPGQAPRLLIYKVSNRFSGVPDRFSGSGSGTDFTLKISRVEAEDVGVYYCGQGTQVPYTFGQGTKLEIK |
| 3.29 | CE115HA000/GLS3000 N28M (antibody, IgG1, name in Kabat numbering, V domains shown, one-arm IgG1) VH: QVQLVESGGGVVQPGRSLRLSCAASGFTFSNAWMHWVRQAPGKGLEWVAQIKAKSNNYATYYAESVKGRFTISRDDSKNSLYLQMNSLKTEDTAVYYCRYVHYGAYYGVDAWGQGTTVTVSS VL: DIVMTQSPLSLPVTPGEPASISCRSSQSLVHSMRNTYLHWYQQKPGQAPRLLIYKVSNRFSGVPDRFSGSGSGTDFTLKISRVEAEDVGVYYCGQGTQVPYTFGQGTKLEIK |
| 4.18 | CE115HA000/GLS3000 N28P (antibody, IgG1, name in Kabat numbering, V domains shown, one-arm IgG1) VH: QVQLVESGGGVVQPGRSLRLSCAASGFTFSNAWMHWVRQAPGKGLEWVAQIKAKSNNYATYYAESVKGRFTISRDDSKNSLYLQMNSLKTEDTAVYYCRYVHYGAYYGVDAWGQGTTVTVSS VL: DIVMTQSPLSLPVTPGEPASISCRSSQSLVHSPRNTYLHWYQQKPGQAPRLLIYKVSNRFSGVPDRFSGSGSGTDFTLKISRVEAEDVGVYYCGQGTQVPYTFGQGTKLEIK |
| 3.48 | CE115HA000/GLS3000 N28Q (antibody, IgG1, name in Kabat numbering, V domains shown, one-arm IgG1) VH: QVQLVESGGGVVQPGRSLRLSCAASGFTFSNAWMHWVRQAPGKGLEWVAQIKAKSNNYATYYAESVKGRFTISRDDSKNSLYLQMNSLKTEDTAVYYCRYVHYGAYYGVDAWGQGTTVTVSS VL: DIVMTQSPLSLPVTPGEPASISCRSSQSLVHSQRNTYLHWYQQKPGQAPRLLIYKVSNRFSGVPDRFSGSGSGTDFTLKISRVEAEDVGVYYCGQGTQVPYTFGQGTKLEIK |
| 4.3 | CE115HA000/GLS3000 N28S (antibody, IgG1, name in Kabat numbering, V domains shown, one-arm IgG1) VH: QVQLVESGGGVVQPGRSLRLSCAASGFTFSNAWMHWVRQAPGKGLEWVAQIKAKSNNYATYYAESVKGRFTISRDDSKNSLYLQMNSLKTEDTAVYYCRYVHYGAYYGVDAWGQGTTVTVSS VL: DIVMTQSPLSLPVTPGEPASISCRSSQSLVHSSRNTYLHWYQQKPGQAPRLLIYKVSNRFSGVPDRFSGSGSGTDFTLKISRVEAEDVGVYYCGQGTQVPYTFGQGTKLEIK |
| 2.67 | CE115HA000/GLS3000 N28T (antibody, IgG1, name in Kabat numbering, V domains shown, one-arm IgG1) VH: QVQLVESGGGVVQPGRSLRLSCAASGFTFSNAWMHWVRQAPGKGLEWVAQIKAKSNNYATYYAESVKGRFTISRDDSKNSLYLQMNSLKTEDTAVYYCRYVHYGAYYGVDAWGQGTTVTVSS VL: DIVMTQSPLSLPVTPGEPASISCRSSQSLVHSTRNTYLHWYQQKPGQAPRLLIYKVSNRFSGVPDRFSGSGSGTDFTLKISRVEAEDVGVYYCGQGTQVPYTFGQGTKLEIK |
| 3.73 | CE115HA000/GLS3000 N28V (antibody, IgG1, name in Kabat numbering, V domains shown, one-arm IgG1) VH: QVQLVESGGGVVQPGRSLRLSCAASGFTFSNAWMHWVRQAPGKGLEWVAQIKAKSNNYATYYAESVKGRFTISRDDSKNSLYLQMNSLKTEDTAVYYCRYVHYGAYYGVDAWGQGTTVTVSS VL: DIVMTQSPLSLPVTPGEPASISCRSSQSLVHSVRNTYLHWYQQKPGQAPRLLIYKVSNRFSGVPDRFSGSGSGTDFTLKISRVEAEDVGVYYCGQGTQVPYTFGQGTKLEIK |
| 3.17 | CE115HA000/GLS3000 N28W (antibody, IgG1, name in Kabat numbering, V domains shown, one-arm IgG1) VH: QVQLVESGGGVVQPGRSLRLSCAASGFTFSNAWMHWVRQAPGKGLEWVAQIKAKSNNYATYYAESVKGRFTISRDDSKNSLYLQMNSLKTEDTAVYYCRYVHYGAYYGVDAWGQGTTVTVSS VL: DIVMTQSPLSLPVTPGEPASISCRSSQSLVHSWRNTYLHWYQQKPGQAPRLLIYKVSNRFSGVPDRFSGSGSGTDFTLKISRVEAEDVGVYYCGQGTQVPYTFGQGTKLEIK |
| 3.89 | CE115HA000/GLS3000 N28Y (antibody, IgG1, name in Kabat numbering, V domains shown, one-arm IgG1) VH: QVQLVESGGGVVQPGRSLRLSCAASGFTFSNAWMHWVRQAPGKGLEWVAQIKAKSNNYATYYAESVKGRFTISRDDSKNSLYLQMNSLKTEDTAVYYCRYVHYGAYYGVDAWGQGTTVTVSS VL: DIVMTQSPLSLPVTPGEPASISCRSSQSLVHSYRNTYLHWYQQKPGQAPRLLIYKVSNRFSGVPDRFSGSGSGTDFTLKISRVEAEDVGVYYCGQGTQVPYTFGQGTKLEIK |
| 1.16 | CE115HA000/GLS3000 N30A (antibody, IgG1, name in Kabat numbering, V domains shown, one-arm IgG1) VH: QVQLVESGGGVVQPGRSLRLSCAASGFTFSNAWMHWVRQAPGKGLEWVAQIKAKSNNYATYYAESVKGRFTISRDDSKNSLYLQMNSLKTEDTAVYYCRYVHYGAYYGVDAWGQGTTVTVSS VL: DIVMTQSPLSLPVTPGEPASISCRSSQSLVHSNRATYLHWYQQKPGQAPRLLIYKVSNRFSGVPDRFSGSGSGTDFTLKISRVEAEDVGVYYCGQGTQVPYTFGQGTKLEIK |
| 3.82 | CE115HA000/GLS3000 N30D (antibody, IgG1, name in Kabat numbering, V domains shown, one-arm IgG1) VH: QVQLVESGGGVVQPGRSLRLSCAASGFTFSNAWMHWVRQAPGKGLEWVAQIKAKSNNYATYYAESVKGRFTISRDDSKNSLYLQMNSLKTEDTAVYYCRYVHYGAYYGVDAWGQGTTVTVSS VL: DIVMTQSPLSLPVTPGEPASISCRSSQSLVHSNRDTYLHWYQQKPGQAPRLLIYKVSNRFSGVPDRFSGSGSGTDFTLKISRVEAEDVGVYYCGQGTQVPYTFGQGTKLEIK |
| 2.83 | CE115HA000/GLS3000 N30E (antibody, IgG1, name in Kabat numbering, V domains shown, one-arm IgG1) VH: QVQLVESGGGVVQPGRSLRLSCAASGFTFSNAWMHWVRQAPGKGLEWVAQIKAKSNNYATYYAESVKGRFTISRDDSKNSLYLQMNSLKTEDTAVYYCRYVHYGAYYGVDAWGQGTTVTVSS VL: DIVMTQSPLSLPVTPGEPASISCRSSQSLVHSNRETYLHWYQQKPGQAPRLLIYKVSNRFSGVPDRFSGSGSGTDFTLKISRVEAEDVGVYYCGQGTQVPYTFGQGTKLEIK |
| 2.1 | CE115HA000/GLS3000 N30G (antibody, IgG1, name in Kabat numbering, V domains shown, one-arm IgG1) VH: QVQLVESGGGVVQPGRSLRLSCAASGFTFSNAWMHWVRQAPGKGLEWVAQIKAKSNNYATYYAESVKGRFTISRDDSKNSLYLQMNSLKTEDTAVYYCRYVHYGAYYGVDAWGQGTTVTVSS VL: DIVMTQSPLSLPVTPGEPASISCRSSQSLVHSNRGTYLHWYQQKPGQAPRLLIYKVSNRFSGVPDRFSGSGSGTDFTLKISRVEAEDVGVYYCGQGTQVPYTFGQGTKLEIK |
| 1.08 | CE115HA000/GLS3000 N30H (antibody, IgG1, name in Kabat numbering, V domains shown, one-arm IgG1) VH: QVQLVESGGGVVQPGRSLRLSCAASGFTFSNAWMHWVRQAPGKGLEWVAQIKAKSNNYATYYAESVKGRFTISRDDSKNSLYLQMNSLKTEDTAVYYCRYVHYGAYYGVDAWGQGTTVTVSS VL: DIVMTQSPLSLPVTPGEPASISCRSSQSLVHSNRHTYLHWYQQKPGQAPRLLIYKVSNRFSGVPDRFSGSGSGTDFTLKISRVEAEDVGVYYCGQGTQVPYTFGQGTKLEIK |
| 1.24 | CE115HA000/GLS3000 N30I (antibody, IgG1, name in Kabat numbering, V domains shown, one-arm IgG1) VH: QVQLVESGGGVVQPGRSLRLSCAASGFTFSNAWMHWVRQAPGKGLEWVAQIKAKSNNYATYYAESVKGRFTISRDDSKNSLYLQMNSLKTEDTAVYYCRYVHYGAYYGVDAWGQGTTVTVSS VL: DIVMTQSPLSLPVTPGEPASISCRSSQSLVHSNRITYLHWYQQKPGQAPRLLIYKVSNRFSGVPDRFSGSGSGTDFTLKISRVEAEDVGVYYCGQGTQVPYTFGQGTKLEIK |
| 1.35 | CE115HA000/GLS3000 N30K (antibody, IgG1, name in Kabat numbering, V domains shown, one-arm IgG1) VH: QVQLVESGGGVVQPGRSLRLSCAASGFTFSNAWMHWVRQAPGKGLEWVAQIKAKSNNYATYYAESVKGRFTISRDDSKNSLYLQMNSLKTEDTAVYYCRYVHYGAYYGVDAWGQGTTVTVSS VL: DIVMTQSPLSLPVTPGEPASISCRSSQSLVHSNRKTYLHWYQQKPGQAPRLLIYKVSNRFSGVPDRFSGSGSGTDFTLKISRVEAEDVGVYYCGQGTQVPYTFGQGTKLEIK |
